Entries after “also recorded” stand apart in the source; their conditions may differ.
Test system: primary rat cerebellar granule neurons
Assay: Survival of primary cerebellar granule neurons in low K+ medium
Format: cell-based
Settings: serum-free BME 5 mM KCl, TS 100 ng/ml, 24 hours, FDA staining
Description: Cultures enriched in granule neurons were obtained from the cerebellum of 8-days-old Wistar rats (Charles River, Wilmington, Mass.) as described by D'Mello et al., J. Neurosci 17:1548-1560 (1997). Cells were plated in basal Eagle medium (BME, Gibco BRL, Gaithersburg, Md.), supplemented with 10% FCS, 25 mM KCl and 2 mM glutamine (Gibso BRL) on dishes coated with poly-L-lysine and laminin. Cytosine arabinofumoside (10 μM) was added to the culture medium 18-22 hrs after plating to prevent replication of non-neuronal cells. Replacement of culture medium with serum-free BME medium was performed 7-10 days after plating. Cells were maintained in serum-free BME with 5 mM KCl for 3 hrs and challenged with different stimuli. Neuronal survival was assayed after 24 hours by staining with 10 μg/ml fluorescein diacetate (FDA, Sigma) (Jones and Senft, 1985) and with DAPI (see above). Chicken dorsal root ganglia neurons were prepared as described (Cox and Dunlap, J. Gen. Physiol 104:311-336 (1994)).

B1: TS: T. cruzi trans-sialidase purified by immuno-affinity chromatography from supernatants of infected Vero cells (SEQ ID NO:2, SEQ ID NO:34) (protein, listed as Trypanosoma cruzi)
chain: MVAIADARYETSSENSLIDTVAKYSVDDGETWETQIAIKNSRVSSVSRVVDPTVIVKGNKLYVLVGSYYSSRSYWSSHGDARDWDILLAVGEVTKSTAGGKITASIKWGSPVSLKKFFPAEMEGMHTNQFLGGAGVAIVASNGNLVYPVQVTNKRKQVFSKIFYSEDDGKTWKFGKGRSDFGCSEPVALEWEGKLIINTRVDWKRRLVYESSDMEKPWVEAVGTVSRVWGPSPKSNQPGSQTSFTAVTIEGMRVMLFTHPLNFKGRCVRDRLNLWLTDNQRIYNVGQVSIGDENSAYSSVLYKDDKLYCLHEINTDEVYSLVFARLVGELRIIKSVLRSWKNWTATCPAFAPLLIQPLRRQRVVVVPLSPRLVLLAFCRQRLPKRMGGSYRCVNASTANAERVRNGLKFAGVGGGALWPVSQQGQNQRYRFANHAFTLVASVTIHEAPRAASPLLGASLDSSGGKKLLGLSYDEKHQWQPIYGSTPVTPTGSWETGKRYHLVLTMANKIGSVYIDGELLEGSGQTVVPDGRTPDISHFYVGGYKRSDMPTISHVTVNNVLLYNRRQLNTEEIRTLFLSQDLIGTEAHMDSSSDSSAHSTPSTPADSSAHSTPSTPVDSSAHSTPSTPADSSAHGTPSTPVDSSAHGTPSTPADSSAHGTPSTPVDSSAHSTPSTPVDSSAHSTPSTPVDSSAHGAPSTPADSSAHGTPSTPVDSSAHGTPSTPADSSAHSTPSTPADSSAHSTPSTPADSSAHSTPSTPVDSSAHGTPSTPADSSAHSTPSTPADSSAHGTPSTPVDSSAHSTPSTPVDSSAHGTPSTPVDSSAHSTPSTPVDSSAHGTPSTPVDSSAHSTPSTPADSSAHSTPSTPADSSAHGTPSTPVDSSAHSTPSTPADSSAHSTPSTPVDSSAHSTPSTPADSSAHGTPSTPVDSSAHGTPSTPADSSAHSTPSTPADSSAHSTPSTPADSSAHSTPSTPVDSSAHSTPSTPADSSAHSTPSTPADSSAHSTPSTPADSSAHSTPSTPVDSSAHSTPSTPADSSAHGTPSTPADSSAHSTPSTPVDSSAHSTPSTPADSSAHGTPSTPADSSAHSTPSTPADSSAHGTPSTPADSSAHSTPSTPAGSSANGTVLILPDGAALSTFSGGGLLLCACALLLHVFFMAVF
B1 was tested, and the “protection of primary cerebellar granule neurons from death in low K+ medium” value was “effectively protected the neurons from death; also recorded: increased number of viable cells”.
